Source: patent US20040081647

B1: Cathepsin G (enzyme, UniProt P08311 21-244, looked up, species assumed)
Cathepsin G: IIGGRESRPHSRPYMAYLQIQSPAGQSRCGGFLVREDFVLTAAHCWGSNINVTLGAHNIQRRENTQQHITARRAIRHPQYNQRTIQNDIMLLQLSRRVRRNRNVNPVALPRAQEGLRPGTLCTVAGWGRVSMRRGTDTLREVQLRVQRDRQCLRIFGSYDPRRQICVGDRRERKAAFKGDSGGPLLCNNVAHGIVSYGKSSGVPPEVFTRVSSFLPWIRTTMRS
B2: MMP7 (enzyme, UniProt P09237 95-267, looked up, species assumed)
Matrilysin: YSLFPNSPKWTSKVVTYRIVSYTRDLPHITVDRLVSKALNMWGKEIPLHFRKVVWGTADIMIGFARGAHGDSYPFDGPGNTLAHAFAPGTGLGGDAHFDEDERWTDGSSLGINFLYAATHELGHSLGMGHSSDPNAVMYPTYGNGDPQNFKLSQDDIKGIQKLYGKRSNSRKK
B3: ADAMTS4 (enzyme, UniProt O75173 213-837, looked up, species assumed)
A disintegrin and metalloproteinase with thrombospondin motifs 4: FASLSRFVETLVVADDKMAAFHGAGLKRYLLTVMAAAAKAFKHPSIRNPVSLVVTRLVILGSGEEGPQVGPSAAQTLRSFCAWQRGLNTPEDSDPDHFDTAILFTRQDLCGVSTCDTLGMADVGTVCDPARSCAIVEDDGLQSAFTAAHELGHVFNMLHDNSKPCISLNGPLSTSRHVMAPVMAHVDPEEPWSPCSARFITDFLDNGYGHCLLDKPEAPLHLPVTFPGKDYDADRQCQLTFGPDSRHCPQLPPPCAALWCSGHLNGHAMCQTKHSPWADGTPCGPAQACMGGRCLHMDQLQDFNIPQAGGWGPWGPWGDCSRTCGGGVQFSSRDCTRPVPRNGGKYCEGRRTRFRSCNTEDCPTGSALTFREEQCAAYNHRTDLFKSFPGPMDWVPRYTGVAPQDQCKLTCQAQALGYYYVLEPRVVDGTPCSPDSSSVCVQGRCIHAGCDRIIGSKKKFDKCMVCGGDGSGCSKQSGSFRKFRYGYNNVVTIPAGATHILVRQQGNPGHRSIYLALKLPDGSYALNGEYTLMPSPTDVVLPGAVSLRYSGATAASETLSGHGPLAQPLTLQVLVAGNPQDTRLRYSFFVPRPTPSTPRPTPQDWLHRRAQILEILRRRPWAGRK

Target: recombinant human TNFα (RDI) (UniProt P01375)
Sequence (P01375 77-233): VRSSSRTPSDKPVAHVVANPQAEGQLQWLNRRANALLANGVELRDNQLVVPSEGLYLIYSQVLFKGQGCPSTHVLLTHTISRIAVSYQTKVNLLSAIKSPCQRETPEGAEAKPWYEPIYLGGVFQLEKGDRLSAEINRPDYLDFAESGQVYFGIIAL

| Protein | inactivation of TNFα (L929 cytotoxicity bioassay after overnight digestion) | log reduction in TNFα activity (L929 cytotoxicity bioassay after overnight digestion) |
| --- | --- | --- |
| B1 | Cathepsin G (under: Proteases that did not inactivate TNF) | – |
| B2 | – | MMP7 (1.22) |
| B3 | ADAMTS4 (under: Proteases that did not inactivate TNF) | – |
